{"source": "patent US20200216522A1", "about": "(DENALI THERAPEUTICS, published 2020)", "binders": {"B1": {"name": "murine anti-Tau hybridoma antibody 17G2.A1 (antibody, V domains shown)", "VH": "QVQLQQPGAELVGPGSSVKLSCKASGYTFINYWIDWMKQSPGQGLEWIGNIYPSDSESHYNQKFTDKATLTVDISSSTAYLQLSSLTSEDSAVYYCALYSKGYWGQGTSVTVSS", "VL": "DVLMTQTPLSLPVTLGDQASISCRSSQNIVHTNGNTYLEWYLQKPGQSPKLLIYKLSSRFSGVPDRFSGSGSGTDFTLKISRVEAEDLGVYYCFQGSHLPFTFGGGTKLEIKR", "notes": "mouse IgG from hybridoma; also called anti-Tau 17G2.A1"}}, "assay_in_all_cases": "peptide array", "key": {"[1]": {"biological_target": "T1, Peptide_009 (human)", "T1 peptide": "AGLKESPLQTPTEDG", "summary_of_the_method": "(§1)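 Overlapping 15-mer peptides (5-aa offset) spanning human 2N4R Tau spotted in triplicate on slides; antibodies bound 2 h at room temperature in 3% BSA-TBST (chimeric IgG 5 μg/mL; mouse IgG 30 μg/mL). Detection 1 h with fluorescent anti-human (568 nm) or anti-mouse (647 nm) secondary; fluorescence imaging aligned to array map.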"}, "[2]": {"biological_target": "T2, Peptide_007 (human)", "T2 peptide": "MHQDQEGDTDAGLKE", "summary_of_the_method": "as §1"}, "[3]": {"biological_target": "T3, Peptide_004 (human)", "T3 peptide": "GTYGLGDRKDQGGYT", "summary_of_the_method": "as §1"}, "[4]": {"biological_target": "T4, Peptide_002 (human)", "T4 peptide": "QEFEVMEDHAGTYGL", "summary_of_the_method": "as §1"}, "[5]": {"biological_target": "T5, Peptide_024 (human)", "T5 peptide": "DEAAGHVTQARMVSK", "summary_of_the_method": "as §1"}, "[6]": {"biological_target": "T6, Peptide_022 (human)", "T6 peptide": "AGIGDTPSLEDEAAG", "summary_of_the_method": "as §1"}, "[7]": {"biological_target": "T7, Peptide_020 (human)", "T7 peptide": "EIPEGTTAEEAGIGD", "summary_of_the_method": "as §1"}, "[8]": {"biological_target": "T8, Peptide_019 (human)", "T8 peptide": "AQPHTEIPEGTTAEE", "summary_of_the_method": "as §1"}, "[9]": {"biological_target": "T9, Peptide_018 (human)", "T9 peptide": "GKQAAAQPHTEIPEG", "summary_of_the_method": "as §1"}, "[10]": {"biological_target": "T10, Peptide_017 (human)", "T10 peptide": "DEGAPGKQAAAQPHT", "summary_of_the_method": "as §1"}, "[11]": {"biological_target": "T11, Peptide_015 (human)", "T11 peptide": "TAEDVTAPLVDEGAP", "summary_of_the_method": "as §1"}, "[12]": {"biological_target": "T12, Peptide_036 (human)", "T12 peptide": "PPAPKTPPSSGEPPK", "summary_of_the_method": "as §1"}, "[13]": {"biological_target": "T13, Peptide_027 (human)", "T13 peptide": "SKDGTGSDDKKAKGA", "summary_of_the_method": "as §1"}, "[14]": {"biological_target": "T14, Peptide_043 (human)", "T14 peptide": "RTPSLPTPPTREPKK", "summary_of_the_method": "as §1"}, "[15]": {"biological_target": "T15, Peptide_041 (human)", "T15 peptide": "GSPGTPGSRSRTPSL", "summary_of_the_method": "as §1"}, "[16]": {"biological_target": "T16, Peptide_040 (human)", "T16 peptide": "GYSSPGSPGTPGSRS", "summary_of_the_method": "as §1"}, "[17]": {"biological_target": "T17, Peptide_039 (human)", "T17 peptide": "SGDRSGYSSPGSPGT", "summary_of_the_method": "as §1"}, "[18]": {"biological_target": "T18, Peptide_058 (human)", "T18 peptide": "NVQSKCGSKDNIKHV", "summary_of_the_method": "as §1"}, "[19]": {"biological_target": "T19, Peptide_057 (human)", "T19 peptide": "KLDLSNVQSKCGSKD", "summary_of_the_method": "as §1"}, "[20]": {"biological_target": "T20, Peptide_056 (human)", "T20 peptide": "QIINKKLDLSNVQSK", "summary_of_the_method": "as §1"}, "[21]": {"biological_target": "T21, Peptide_055 (human)", "T21 peptide": "GGGKVQIINKKLDLS", "summary_of_the_method": "as §1"}, "[22]": {"biological_target": "T22, Peptide_053 (human)", "T22 peptide": "GSTENLKHQPGGGKV", "summary_of_the_method": "as §1"}, "[23]": {"biological_target": "T23, Peptide_052 (human)", "T23 peptide": "VKSKIGSTENLKHQP", "summary_of_the_method": "as §1"}, "[24]": {"biological_target": "T24, Peptide_051 (human)", "T24 peptide": "PDLKNVKSKIGSTEN", "summary_of_the_method": "as §1"}, "[25]": {"biological_target": "T25, Peptide_050 (human)", "T25 peptide": "APVPMPDLKNVKSKI", "summary_of_the_method": "as §1"}, "[26]": {"biological_target": "T26, Peptide_049 (human)", "T26 peptide": "SRLQTAPVPMPDLKN", "summary_of_the_method": "as §1"}, "[27]": {"biological_target": "T27, Peptide_070 (human)", "T27 peptide": "FKDRVQSKIGSLDNI", "summary_of_the_method": "as §1"}, "[28]": {"biological_target": "T28, Peptide_068 (human)", "T28 peptide": "QVEVKSEKLDFKDRV", "summary_of_the_method": "as §1"}, "[29]": {"biological_target": "T29, Peptide_065 (human)", "T29 peptide": "KCGSLGNIHHKPGGG", "summary_of_the_method": "as §1"}, "[30]": {"biological_target": "T30, Peptide_079 (human)", "T30 peptide": "EIVYKSPVVSGDTSP", "summary_of_the_method": "as §1"}, "[31]": {"biological_target": "T31, Peptide_078 (human)", "T31 peptide": "TDHGAEIVYKSPVVS", "summary_of_the_method": "as §1"}, "[32]": {"biological_target": "T32, Peptide_073 (human)", "T32 peptide": "THVPGGGNKKIETHK", "summary_of_the_method": "as §1"}, "[33]": {"biological_target": "T33, Peptide_085 (human)", "T33 peptide": "DSPQLATLADEVSAS", "summary_of_the_method": "as §1"}, "[34]": {"biological_target": "T34, Peptide_084 (human)", "T34 peptide": "SIDMVDSPQLATLAD", "summary_of_the_method": "as §1"}, "[35]": {"biological_target": "T35, Peptide_083 (human)", "T35 peptide": "VSSTGSIDMVDSPQL", "summary_of_the_method": "as §1"}}, "data": [{"binder": "B1", "values": [{"measurement": "binding result", "setting": "[1]", "value": "no binding (tested: 30 ug/mL)"}, {"measurement": "binding result", "setting": "[2]", "value": "no binding (tested: 30 ug/mL)"}, {"measurement": "binding result", "setting": "[3]", "value": "no binding (tested: 30 ug/mL)"}, {"measurement": "binding result", "setting": "[4]", "value": "no binding (tested: 30 ug/mL)"}, {"measurement": "binding result", "setting": "[5]", "value": "no binding (tested: 30 ug/mL)"}, {"measurement": "binding result", "setting": "[6]", "value": "no binding (tested: 30 ug/mL)"}, {"measurement": "binding result", "setting": "[7]", "value": "no binding (tested: 30 ug/mL)"}, {"measurement": "binding result", "setting": "[8]", "value": "no binding (tested: 30 ug/mL)"}, {"measurement": "binding result", "setting": "[9]", "value": "no binding (tested: 30 ug/mL)"}, {"measurement": "binding result", "setting": "[10]", "value": "no binding (tested: 30 ug/mL)"}, {"measurement": "binding result", "setting": "[11]", "value": "no binding (tested: 30 ug/mL)"}, {"measurement": "binding result", "setting": "[12]", "value": "no binding (tested: 30 ug/mL)"}, {"measurement": "binding result", "setting": "[13]", "value": "no binding (tested: 30 ug/mL)"}, {"measurement": "binding result", "setting": "[14]", "value": "no binding (tested: 30 ug/mL)"}, {"measurement": "binding result", "setting": "[15]", "value": "no binding (tested: 30 ug/mL)"}, {"measurement": "binding result", "setting": "[16]", "value": "no binding (tested: 30 ug/mL)"}, {"measurement": "binding result", "setting": "[17]", "value": "binds"}, {"measurement": "binding result", "setting": "[18]", "value": "no binding (tested: 30 ug/mL)"}, {"measurement": "binding result", "setting": "[19]", "value": "no binding (tested: 30 ug/mL)"}, {"measurement": "binding result", "setting": "[20]", "value": "no binding (tested: 30 ug/mL)"}, {"measurement": "binding result", "setting": "[21]", "value": "no binding (tested: 30 ug/mL)"}, {"measurement": "binding result", "setting": "[22]", "value": "no binding (tested: 30 ug/mL)"}, {"measurement": "binding result", "setting": "[23]", "value": "no binding (tested: 30 ug/mL)"}, {"measurement": "binding result", "setting": "[24]", "value": "no binding (tested: 30 ug/mL)"}, {"measurement": "binding result", "setting": "[25]", "value": "no binding (tested: 30 ug/mL)"}, {"measurement": "binding result", "setting": "[26]", "value": "no binding (tested: 30 ug/mL)"}, {"measurement": "binding result", "setting": "[27]", "value": "no binding (tested: 30 ug/mL)"}, {"measurement": "binding result", "setting": "[28]", "value": "no binding (tested: 30 ug/mL)"}, {"measurement": "binding result", "setting": "[29]", "value": "no binding (tested: 30 ug/mL)"}, {"measurement": "binding result", "setting": "[30]", "value": "no binding (tested: 30 ug/mL)"}, {"measurement": "binding result", "setting": "[31]", "value": "no binding (tested: 30 ug/mL)"}, {"measurement": "binding result", "setting": "[32]", "value": "no binding (tested: 30 ug/mL)"}, {"measurement": "binding result", "setting": "[33]", "value": "no binding (tested: 30 ug/mL)"}, {"measurement": "binding result", "setting": "[34]", "value": "no binding (tested: 30 ug/mL)"}, {"measurement": "binding result", "setting": "[35]", "value": "no binding (tested: 30 ug/mL)"}]}]}
